Results from article PMC5795439.

Assays:
[1] = flow cytometry, surface anti-HA, 293T; conditions: glycan changed form; control: untreated, same construct
[2] = virus release efficiency, p24 western blot, 293T; conditions: glycan changed form; control: untreated, same construct
[3] = flow cytometry, surface anti-HA, 293T
[4] = anti-HA western blot of 293T lysates; conditions: glycan lost
[5] = virus release efficiency, p24 western blot, 293T
[6] = immunofluorescence microscopy, anti-tetherin, HeLa; conditions: glycan changed form; control: untreated HeLa
[7] = virus release efficiency, HeLa endogenous tetherin; conditions: glycan changed form; control: untreated HeLa
[8] = flow cytometry, surface anti-tetherin, HeLa; conditions: glycan changed form; control: untreated HeLa
[9] = glycan lost, control: untreated WT tetherin
[10] = glycan lost, control: wild type
[11] = glycan changed form, control: untreated, same construct

With tetherin: kifunensine (N92A tetherin) the localisation_or_trafficking [1] was “decreases” and the “other: restriction of HIV-1 release” value [2] was “no change”.

In the case of tetherin: kifunensine (N65A tetherin), the localisation_or_trafficking [1] is reported as “decreases” and the “other: restriction of HIV-1 release” value [2] is reported as “no change”.

B1: tetherin: tunicamycin (protein)
parent chain: MASTSYDYCRVPMEDGDKRCKLLLGIGILVLLIIVILGVPLIIFTIKANSEACRDGLRAVMECRNVTHLLQQELTEAQKGFQDVEAQAATCNHTVMALMASLDAEKAQGQKKVEELEGEITTLNHKLQDASAEVERLRRENQVLSVRIADKKYYPSSQDSSSAAAPQLLIVLLGLSALLQ
With B1 the localisation_or_trafficking [3, 9] was “decreases”, the expression_or_secretion ([4]; control: untreated WT tetherin) was “no change” and the “other: restriction of HIV-1 release, fold_change” value [5, 9] was “decreases”.

B2: tetherin: N65A (protein)
parent chain: MASTSYDYCRVPMEDGDKRCKLLLGIGILVLLIIVILGVPLIIFTIKANSEACRDGLRAVMECRNVTHLLQQELTEAQKGFQDVEAQAATCNHTVMALMASLDAEKAQGQKKVEELEGEITTLNHKLQDASAEVERLRRENQVLSVRIADKKYYPSSQDSSSAAAPQLLIVLLGLSALLQ
With B2 the localisation_or_trafficking [3, 10] was “no change”, the expression_or_secretion ([4]; control: wild type) was “no change” and the “other: restriction of HIV-1 release” value [5, 10] was “no change”.

B3: tetherin: kifunensine (WT tetherin) (protein)
parent chain: MASTSYDYCRVPMEDGDKRCKLLLGIGILVLLIIVILGVPLIIFTIKANSEACRDGLRAVMECRNVTHLLQQELTEAQKGFQDVEAQAATCNHTVMALMASLDAEKAQGQKKVEELEGEITTLNHKLQDASAEVERLRRENQVLSVRIADKKYYPSSQDSSSAAAPQLLIVLLGLSALLQ
With B3 the localisation_or_trafficking [3, 11] was “decreases” and the “other: restriction of HIV-1 release” value [5, 11] was “no change”.

B4: tetherin: N92A (protein)
parent chain: MASTSYDYCRVPMEDGDKRCKLLLGIGILVLLIIVILGVPLIIFTIKANSEACRDGLRAVMECRNVTHLLQQELTEAQKGFQDVEAQAATCNHTVMALMASLDAEKAQGQKKVEELEGEITTLNHKLQDASAEVERLRRENQVLSVRIADKKYYPSSQDSSSAAAPQLLIVLLGLSALLQ
With B4 the localisation_or_trafficking [3, 10] was “no change”, the expression_or_secretion ([4]; control: wild type) was “no change” and the “other: restriction of HIV-1 release” value [5, 10] was “no change”.

B5: tetherin: N65,92A (protein)
parent chain: MASTSYDYCRVPMEDGDKRCKLLLGIGILVLLIIVILGVPLIIFTIKANSEACRDGLRAVMECRNVTHLLQQELTEAQKGFQDVEAQAATCNHTVMALMASLDAEKAQGQKKVEELEGEITTLNHKLQDASAEVERLRRENQVLSVRIADKKYYPSSQDSSSAAAPQLLIVLLGLSALLQ
With B5 the localisation_or_trafficking [3, 10] was “decreases”, the expression_or_secretion ([4]; control: wild type) was “increases” and the “other: restriction of HIV-1 release” value [5, 10] was “abolishes, there was a small (25%) decrease in VRE at 0.8 μg of input DNA”.

B6: tetherin: kifunensine (protein)
parent chain: MASTSYDYCRVPMEDGDKRCKLLLGIGILVLLIIVILGVPLIIFTIKANSEACRDGLRAVMECRNVTHLLQQELTEAQKGFQDVEAQAATCNHTVMALMASLDAEKAQGQKKVEELEGEITTLNHKLQDASAEVERLRRENQVLSVRIADKKYYPSSQDSSSAAAPQLLIVLLGLSALLQ
In the case of B6, the localisation_or_trafficking [6] is reported as “no change”, the “other: restriction of HIV-1 release” value [7] is reported as “no change” and the localisation_or_trafficking [8] is reported as “no change”.
